Experimental data from publication PMC4182028.
Blank lines part the entries; values can stand above or below the substance they belong to.

Legend:
[1] = target: Chaetomium thermophilum p44 (residues 1-285) (Chaetomium thermophilum)
[2] = tested on: ctXPD wild type;ctp44 (1-285) (Chaetomium thermophilum;Chaetomium thermophilum); assay: BLI; details: 3'-biotin; BLI (Octet RED): 20 mM Tris-HCl pH 8.0, 150 mM NaCl, 10 mM MgCl2, 1 mM DTT, 1 mg/ml BSA; 0.5-5 uM ctXPD; temperature not stated
[3] = tested on: ctXPD K719W (Chaetomium thermophilum); assay: BLI; details: 3'-biotin; BLI (Octet RED): 20 mM Tris-HCl pH 8.0, 150 mM NaCl, 10 mM MgCl2, 1 mM DTT, 1 mg/ml BSA; 0.5-5 uM ctXPD; temperature not stated
[4] = tested on: ctXPD F192A (Chaetomium thermophilum); assay: BLI; details: 3'-biotin; BLI (Octet RED): 20 mM Tris-HCl pH 8.0, 150 mM NaCl, 10 mM MgCl2, 1 mM DTT, 1 mg/ml BSA; 0.5-5 uM ctXPD; temperature not stated
[5] = tested on: ctXPD R195E (Chaetomium thermophilum); assay: BLI; details: 3'-biotin; BLI (Octet RED): 20 mM Tris-HCl pH 8.0, 150 mM NaCl, 10 mM MgCl2, 1 mM DTT, 1 mg/ml BSA; 0.5-5 uM ctXPD; temperature not stated
[6] = tested on: ctXPD wild type (Chaetomium thermophilum); assay: BLI; details: 3'-biotin; BLI (Octet RED): 20 mM Tris-HCl pH 8.0, 150 mM NaCl, 10 mM MgCl2, 1 mM DTT, 1 mg/ml BSA; 0.5-5 uM ctXPD; temperature not stated
[7] = tested on: ctXPD R195A (Chaetomium thermophilum); assay: BLI; details: 3'-biotin; BLI (Octet RED): 20 mM Tris-HCl pH 8.0, 150 mM NaCl, 10 mM MgCl2, 1 mM DTT, 1 mg/ml BSA; 0.5-5 uM ctXPD; temperature not stated
[8] = tested on: ctXPD K48R (Chaetomium thermophilum); assay: BLI; details: 3'-biotin; BLI (Octet RED): 20 mM Tris-HCl pH 8.0, 150 mM NaCl, 10 mM MgCl2, 1 mM DTT, 1 mg/ml BSA; 0.5-5 uM ctXPD; temperature not stated
[9] = tested on: ctXPD Y156A (Chaetomium thermophilum); assay: BLI; details: 3'-biotin; BLI (Octet RED): 20 mM Tris-HCl pH 8.0, 150 mM NaCl, 10 mM MgCl2, 1 mM DTT, 1 mg/ml BSA; 0.5-5 uM ctXPD; temperature not stated

- fluorescence-based helicase activity of ctXPD K719W with ctp44 (1-285) added (Rel. Fluorescence Change·s^−1) [1]: 4.8
- ssDNA-dependent ATPase activity of ctXPD K719W with ctp44 (1-285) added (mol ATP·s^−1 ·mol^−1 XPD) [1]: 0.12
Substance: Chaetomium thermophilum XPD K719W (enzyme)

- ssDNA-dependent ATPase activity of ctXPD with ctp44 (1-285) added (0.12 without ctp44) (mol ATP·s^−1 ·mol^−1 XPD) [1]: 0.7
Substance: Chaetomium thermophilum XPD wild type (enzyme)

Substance: GACTACGTACTGTTACGGCTCCATCTCTACCGCAATCAGGCCAGATCTGC [50-nt ssDNA (BLI)]
- Kd [2]: 93 nM
- Kd [3]: 192 nM
- Kd [4]: 668 nM
- Kd [5]: 916 nM
- Kd [6]: 118 nM
- Kd [7]: 1040 nM
- Kd [8]: 159 nM
- Kd [9]: 561 nM
